{
  "source": "patent US11884941B2",
  "about": "“Non-canonical lipoproteins with programmable assembly and architecture and method of making non-canonical lipoproteins” (SYRACUSE UNIVERSITY, priority 2020, dated 2024)",
  "origin": "cited, not measured here",
  "key": {"[1]": {"target": "T1, yeast NMT (Saccharomyces cerevisiae, UniProt P14743)", "T1 sequence (P14743 1-455)": "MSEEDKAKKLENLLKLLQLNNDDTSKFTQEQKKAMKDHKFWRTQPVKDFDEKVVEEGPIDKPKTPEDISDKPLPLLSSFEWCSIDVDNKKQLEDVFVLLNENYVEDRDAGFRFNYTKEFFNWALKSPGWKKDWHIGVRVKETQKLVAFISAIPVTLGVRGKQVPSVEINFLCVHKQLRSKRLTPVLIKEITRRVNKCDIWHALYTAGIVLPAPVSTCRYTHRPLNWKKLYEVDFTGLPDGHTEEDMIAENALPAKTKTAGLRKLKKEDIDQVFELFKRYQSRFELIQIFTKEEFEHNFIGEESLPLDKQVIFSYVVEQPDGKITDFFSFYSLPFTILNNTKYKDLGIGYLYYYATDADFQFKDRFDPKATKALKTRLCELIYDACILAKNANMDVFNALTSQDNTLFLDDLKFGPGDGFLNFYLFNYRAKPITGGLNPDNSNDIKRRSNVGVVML"}, "[2]": {"test_system": "Pseudomonas acyl-CoA synthetase", "conditions": "in vitro"}},
  "note": "Like-named read-outs stand apart in the source and are kept apart here.",
  "data": [
    {"compound": "[N-]=[N+]=NCCCCCCCCCCCC(=O)O", "note": "[ADA, 12-azidododecanoic acid]", "values": [
      {"measurement": "Vm relative to Vm (M)", "setting": "[1]; transfer to N-terminal glycine in ternary complex", "result": "1.5 ×Vm (M)"}
    ]},
    {"compound": "CC(C)(COP(=O)(O)OP(=O)(O)OCC1OC(n2cnc3c(N)ncnc32)C(O)C1OP(=O)(O)O)C(O)C(=O)NCCC(=O)NCCSC(=O)CCCCCCCCCCCN=[N+]=[N-]", "note": "(stereo not drawn) [ADA-CoA]", "values": [
      {"measurement": "amount of acyl-CoA produced compared to M-CoA", "setting": "[2]", "result": "1.5-2 times"}
    ]},
    {"compound": "GARASVLS [octapeptide NMT substrate derived from Pr55gag polypeptide precursor of human immunodeficiency virus I (Devadas et al.)]", "values": [
      {"measurement": "fold reduction of peptide affinity toward NMT:ADA-CoA complex compared to natural substrate (M-CoA)", "setting": "[1]", "result": 7, "unit": "fold"},
      {"measurement": "Km", "setting": "[1]; NMT with ADA-CoA bound, read-out: Km for the peptide, NMT:ADA-CoA", "result": 66, "unit": "µM"},
      {"measurement": "Km", "setting": "[1]; NMT with Myr-CoA bound, read-out: Km for the peptide, NMT:Myr-CoA complex", "result": 9, "unit": "µM"}
    ]},
    {"compound": "GLYASKLFSNL (substrate for transferase)", "values": [
      {"measurement": "Km", "setting": "[1]; read-out: Km of recognition sequence for yeast NMT", "result": "~0.08", "unit": "µM"}
    ]}
  ]
}
